Assay results published in the Human Domainome abundance scans (Beltran et al. 2025).
± gives the uncertainty stated by the source.

B1: Membrane-associated guanylate kinase, WW and PDZ domain-containing protein 3, residues 287 to 329; numbered along this chain, Q5TCQ9 (parent)
chain: MRDETLEPLPKNWEMAYTDTGMIYFIDHNTKTTTWLDPRLCKK

Variants of: B1
Test: abundance fitness (aPCA) (normalised: wild type 0, dead -1); higher = more abundant; growth selection in yeast, the domain comes from the species named
Details: Homo sapiens

Variant	abundance fitness
M15S	-0.047 ± 0.042
M15R	-0.013 ± 0.034
M15G	-0.334 ± 0.034
M15Q	-0.007 ± 0.035
M15Y	-0.186 ± 0.051
M15D	-0.379 ± 0.041
M15K	-0.037 ± 0.05
M15P	-0.11 ± 0.079
M15L	-0.066 ± 0.035
M15V	-0.093 ± 0.035
M15A	-0.043 ± 0.038
M15E	-0.062 ± 0.051
M15H	-0.156 ± 0.062
M15I	0.036 ± 0.24
M15W	-0.283 ± 0.053
M15F	-0.189 ± 0.036
M15T	-0.039 ± 0.051
M15C	-0.097 ± 0.053
Y17L	-0.034 ± 0.04
Y17A	0.026 ± 0.047
Y17S	-0.024 ± 0.043
Y17Q	-0.025 ± 0.071
Y17N	-0.194 ± 0.068
Y17G	-0.199 ± 0.033

Variant	abundance fitness
Y17E	0.031 ± 0.037
Y17W	-0.043 ± 0.037
Y17V	0 ± 0.034
Y17F	-0.043 ± 0.066
Y17K	-0.03 ± 0.056
Y17R	0.054 ± 0.029
Y17P	-0.376 ± 0.039
Y17H	-0.121 ± 0.1
Y17D	-0.323 ± 0.058
Y17C	-0.052 ± 0.041
F25M	-0.721 ± 0.43
F25I	-0.557 ± 0.14
F25E	-0.565 ± 0.049
F25D	-0.516 ± 0.042
F25Q	-0.634 ± 0.05
F25V	-0.989 ± 0.052
F25G	-0.57 ± 0.03
F25T	-0.662 ± 0.058
F25C	-0.774 ± 0.049
F25R	-0.692 ± 0.035
F25L	-0.82 ± 0.056
F25H	-0.421 ± 0.1
F25W	-0.077 ± 0.036
F25S	-0.616 ± 0.057

Variant	abundance fitness
F25P	-0.679 ± 0.041
F25K	-0.68 ± 0.086
I26L	-0.097 ± 0.044
I26Y	-0.479 ± 0.14
I26S	-0.634 ± 0.075
I26E	-0.543 ± 0.091
I26K	-0.196 ± 0.051
I26R	-0.321 ± 0.031
I26G	-0.657 ± 0.039
I26C	-0.352 ± 0.058
I26T	-0.437 ± 0.045
I26P	-0.868 ± 0.16
I26W	-0.648 ± 0.056
I26Q	-0.485 ± 0.092
I26D	-0.659 ± 0.13
Y24F	-0.146 ± 0.06
Y24S	-0.708 ± 0.058
Y24Q	-0.582 ± 0.097
Y24D	-0.524 ± 0.12
Y24R	-0.598 ± 0.035
Y24E	-0.53 ± 0.043
Y24V	-0.567 ± 0.04
Y24K	-0.668 ± 0.071
Y24L	-0.61 ± 0.036

Variant	abundance fitness
Y24G	-0.774 ± 0.036
Y24C	-0.652 ± 0.042
Y24H	-0.574 ± 0.11
Y24T	-0.638 ± 0.072
Y24A	-0.723 ± 0.039
Y24I	-0.678 ± 0.12
Y24W	-0.579 ± 0.037
H28M	-0.386 ± 0.055
H28P	-0.364 ± 0.042
H28V	-0.273 ± 0.031
H28Q	-0.306 ± 0.054
H28A	-0.323 ± 0.037
H28T	-0.214 ± 0.06
H28I	-0.328 ± 0.066
H28L	-0.379 ± 0.043
H28D	-0.53 ± 0.11
H28S	-0.28 ± 0.045
H28E	-0.511 ± 0.047
H28G	-0.275 ± 0.032
H28R	-0.164 ± 0.03
T18P	-1.03 ± 0.13
T18C	-0.223 ± 0.097
T18E	-0.389 ± 0.038
T18G	-0.244 ± 0.029

Variant	abundance fitness
T18R	-0.7 ± 0.035
T18N	-0.391 ± 0.46
T18K	-0.539 ± 0.23
T18M	-0.335 ± 0.044
T18W	-0.676 ± 0.054
T18A	-0.151 ± 0.035
T18S	-0.128 ± 0.044
T18L	-0.471 ± 0.063
T18Q	-0.624 ± 0.13
E7R	-0.084 ± 0.033
E7W	-0.24 ± 0.044
E7M	-0.145 ± 0.038
E7S	-0.049 ± 0.044
E7V	-0.09 ± 0.04
E7P	0.014 ± 0.049
E7Q	-0.04 ± 0.041
E7N	-0.238 ± 0.069
E14A	-0.132 ± 0.042
E14P	-0.868 ± 0.064
E14M	-0.346 ± 0.042
E14I	-0.39 ± 0.066
E14L	-0.456 ± 0.095
E14R	-0.273 ± 0.035
E14F	-1.06 ± 0.27

Variant	abundance fitness
E14V	-0.346 ± 0.043
E14G	-0.224 ± 0.029
E14Q	-0.087 ± 0.051
E14Y	-0.368 ± 0.12
E14H	-0.429 ± 0.066
E14W	-0.834 ± 0.056
E14K	-0.262 ± 0.036
E14S	-0.12 ± 0.033
E14N	-0.372 ± 0.065
I23D	-0.32 ± 0.1
I23M	-0.006 ± 0.047
I23E	0.028 ± 0.034
I23L	-0.01 ± 0.029
I23Q	0.042 ± 0.044
I23A	0.053 ± 0.032
I23C	0.002 ± 0.034
I23W	-0.277 ± 0.05
I23F	-0.162 ± 0.098
I23T	-0.006 ± 0.042
I23N	-0.12 ± 0.058
I23V	0.03 ± 0.035
I23P	-0.001 ± 0.064
I23G	-0.087 ± 0.028
I23S	-0.068 ± 0.04

Variant	abundance fitness
G21W	-0.782 ± 0.068
G21T	-0.689 ± 0.061
G21K	-0.172 ± 0.066
G21L	-0.67 ± 0.036
G21P	-0.682 ± 0.081
G21Q	-0.222 ± 0.059
G21R	-0.237 ± 0.033
G21E	-0.215 ± 0.039
G21M	-0.46 ± 0.067
G21D	-0.241 ± 0.091
G21S	-0.487 ± 0.066
G21A	-0.312 ± 0.036
G21V	-1.18 ± 0.077
T30A	-0.116 ± 0.035
T30D	-0.281 ± 0.051
T30I	-0.423 ± 0.19
T30C	-0.271 ± 0.057
T30G	-0.314 ± 0.029
T30E	-0.265 ± 0.037
N29M	-0.142 ± 0.046
N29R	-0.078 ± 0.027
N29F	-0.152 ± 0.074
N29P	-0.525 ± 0.095
N29Q	-0.089 ± 0.036

Variant	abundance fitness
N29D	-0.141 ± 0.059
N29I	-0.194 ± 0.059
N29T	-0.051 ± 0.039
N29V	-0.094 ± 0.033
N29K	-0.105 ± 0.046
N29H	-0.248 ± 0.14
N29A	-0.074 ± 0.031
N29C	-0.132 ± 0.04
N29G	-0.069 ± 0.027
N29E	-0.03 ± 0.035
N29S	-0.103 ± 0.036
T20P	-0.48 ± 0.05
T20S	-0.023 ± 0.053
T20H	-0.345 ± 0.22
T20C	-0.077 ± 0.04
T20W	-0.328 ± 0.054
T20Y	-0.256 ± 0.067
T20N	-0.132 ± 0.27
T20E	0.017 ± 0.037
T20G	-0.025 ± 0.028
T20I	-0.24 ± 0.053
T20D	-0.054 ± 0.07
T20M	-0.153 ± 0.042
P10Q	-0.505 ± 0.048

Variant	abundance fitness
P10H	-0.677 ± 0.087
P10S	-0.496 ± 0.037
P10A	-0.392 ± 0.038
P10I	-0.854 ± 0.12
P10V	-0.816 ± 0.089
P10L	-0.613 ± 0.046
P10T	-0.462 ± 0.053
P10W	-0.837 ± 0.058
P10R	-0.685 ± 0.034
P10C	-0.54 ± 0.11
P10E	-0.456 ± 0.057
P10D	-0.527 ± 0.13
P10F	-0.831 ± 0.071
W13S	-0.698 ± 0.096
W13K	-0.67 ± 0.064
W13T	-0.475 ± 0.042
W13D	-0.773 ± 0.096
W13A	-0.668 ± 0.036
W13E	-0.683 ± 0.045
W13I	-0.431 ± 0.059
W13L	-0.635 ± 0.046
W13F	-0.221 ± 0.17
W13M	-0.398 ± 0.041
W13Q	-0.729 ± 0.068

Variant	abundance fitness
W13R	-0.634 ± 0.04
W13C	-0.636 ± 0.063
W13G	-0.696 ± 0.033
W13V	-0.303 ± 0.03
W13P	-0.715 ± 0.073
M22P	-0.62 ± 0.062
M22C	-0.028 ± 0.11
M22R	-0.043 ± 0.033
M22Y	0.004 ± 0.14
M22G	0.006 ± 0.031
M22K	0.075 ± 0.07
M22T	-0.005 ± 0.049
M22A	0.081 ± 0.029
M22L	-0.043 ± 0.04
M22V	-0.025 ± 0.041
M22E	0.144 ± 0.044
M22Q	0.096 ± 0.071
M22S	0.199 ± 0.13
M22H	-0.137 ± 0.06
M22D	0.084 ± 0.054
P8W	-0.367 ± 0.042
P8A	-0.065 ± 0.034
P8K	-0.069 ± 0.041
P8Y	-0.395 ± 0.13

Variant	abundance fitness
P8Q	-0.15 ± 0.053
P8M	-0.255 ± 0.056
P8V	-0.187 ± 0.035
P8R	-0.112 ± 0.031
P8E	-0.078 ± 0.076
P8D	-0.087 ± 0.05
P8T	-0.162 ± 0.061
P8C	-0.332 ± 0.24
P8S	-0.325 ± 0.11
P8G	-0.13 ± 0.03
L9R	-0.639 ± 0.058
L9A	-0.691 ± 0.095
L9S	-0.621 ± 0.045
L9Q	-0.566 ± 0.057
L9C	-0.721 ± 0.23
L9G	-0.681 ± 0.034
L9E	-0.566 ± 0.052
L9W	-0.492 ± 0.073
L9V	-0.337 ± 0.036
L9K	-0.683 ± 0.087
L9M	-0.106 ± 0.054
A16K	-0.067 ± 0.055
A16V	-0.193 ± 0.042
A16N	-0.318 ± 0.086

Variant	abundance fitness
A16E	-0.278 ± 0.04
A16R	-0.076 ± 0.032
A16D	-0.257 ± 0.042
A16M	-0.36 ± 0.058
A16Q	-0.15 ± 0.039
A16G	-0.149 ± 0.031
A16L	-0.297 ± 0.04
A16P	-0.914 ± 0.063
A16H	-0.514 ± 0.092
N12G	0.018 ± 0.032
N12I	-0.96 ± 0.11
N12K	-0.155 ± 0.044
N12R	-0.215 ± 0.033
N12V	-0.89 ± 0.071
N12S	-0.213 ± 0.038
N12C	-0.257 ± 0.14
N12T	-0.438 ± 0.073
N12A	-0.191 ± 0.034
N12M	-0.229 ± 0.06
N12P	-0.383 ± 0.054
N12W	-0.412 ± 0.045
N12D	-0.081 ± 0.039
N12F	-0.198 ± 0.049
N12E	-0.22 ± 0.049

Variant	abundance fitness
N12L	-0.247 ± 0.035
N12Q	-0.237 ± 0.046
N12H	-0.185 ± 0.08
D19T	-0.067 ± 0.044
D19C	-0.122 ± 0.054
D19A	-0.047 ± 0.033
D19Q	-0.055 ± 0.079
D19Y	-0.173 ± 0.22
D19S	-0.019 ± 0.035
D19I	-0.536 ± 0.15
D19P	-0.07 ± 0.052
D19R	-0.091 ± 0.045
D19K	-0.034 ± 0.053
D19E	-0.001 ± 0.039
K11C	-0.137 ± 0.039
K11A	-0.033 ± 0.039
K11E	0.024 ± 0.033
K11L	-0.08 ± 0.038
K11F	-0.21 ± 0.11
K11P	0.007 ± 0.049
K11S	-0.068 ± 0.034
K11I	-0.271 ± 0.069
K11R	-0.049 ± 0.03
K11N	-0.118 ± 0.093

Variant	abundance fitness
K11V	-0.109 ± 0.037
K11M	-0.161 ± 0.045
K11H	-0.08 ± 0.037
K11Q	-0.041 ± 0.044
K11D	-0.092 ± 0.086
K11T	-0.068 ± 0.043
D27T	-1.08 ± 0.086
D27A	-0.789 ± 0.037
D27V	-1.01 ± 0.062
D27P	-1.12 ± 0.12
D27S	-0.644 ± 0.037
D27N	-0.238 ± 0.32
D27L	-1.11 ± 0.094
D27F	-0.716 ± 0.25
D27M	-0.766 ± 0.066
D27C	-0.403 ± 0.081
D27G	-0.903 ± 0.04
D27Y	-0.119 ± 0.18
D27W	-1.07 ± 0.094
D27K	-0.98 ± 0.095
D27R	-1.03 ± 0.047
D27E	-0.266 ± 0.042
